The values that follow come from the supplement of paper PMC7877785.

± gives the uncertainty stated by the source.

The data set is described as follows: self-splicing fitness, log relative to wild type (ln ratio); higher = more splicing; Tetrahymena group I intron in knt gene, E. coli kanamycin selection, DiMSum; sequences stand for … in CUCUCU…GGAGGGAAAAGUUAUCAGGCAUGCACCUGGUAGCUAGUCUUUAAACCAAUAGAUUGCAUCGGUUUAAAAGGCAAGACCGUCAAAUUGCGGGAAAGGGGUCAACAGCCGUUCAGUACCAAGUCUCAGGGGAAACUUUGAGAUGGCCUUGCAAAGGGUAUGGUAAUAAGCUGACGGACAUGGUCCUAACCACGCAGCCAAGUCCUAAGUCAACAGAUCUUCUGUUGAUAUGGAUGCAGUUCACAGACUAAAUGUCGGUCGGGGAAGAUGUAUUCUUCUCAUAAGAUAUAGUCGGACCUCUCCUUAAUGGGAGCUAGCGGAUGAAGUGAUGCAACACUGGAGCCGCUGGGAACUAAUUUGUAUGCGAAAGUAUAUUGAUUAGUUUUGGAGUACUCGUGGUCG
Put shortly: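 DiMSum derived fitness as the error-weighted combination of fold changes across replicates, kanamycin versus no kanamycin, normalised to wild type. E. coli BL21(DE3) held the library, which randomised all eight P1ex-region intron nucleotides within the knt kanamycin-resistance gene on pET-22b(+). Six replicate transformations grew overnight at 37°C or 30°C on LB agar with or without 25 μg/mL kanamycin, also containing 100 μg/mL carbenicillin, 50 μM IPTG and 0.2% rhamnose, and pooled colonies were amplicon-sequenced on an Illumina HiSeq 2500.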

CCGUAGCAAUAUUACGUAGC: the “self-splicing fitness (ln)” value is, setting by setting: (30 °C) -3.91 ± 0.21; (37 °C) -2.63 ± 0.22.
For GCAUAGCAAUAUUACGUCAC, in that order: -3.21 ± 0.16 and -2.08 ± 0.22.
As for AAUUAGCAAUAUUACGUAGC, the “self-splicing fitness (ln)” value was -3.24 ± 0.25 (30 °C) and -1.08 ± 0.32 (37 °C).
For AGGAAGCAAUAUUACGCACU, in that order: -0.845 ± 0.22 and -1.35 ± 0.29.
On the same counts, the results for UUGCAGCAAUAUUACGCAUU are -1.92 ± 0.19 and -1.42 ± 0.18.
Consider GCUUAGCAAUAUUACGGUCC, for which the “self-splicing fitness (ln)” value reads like this: (30 °C) -0.86 ± 0.17; (37 °C) 0.242 ± 0.25.
Turning to GUAAAGCAAUAUUACGAUAG, the “self-splicing fitness (ln)” value was -1.08 ± 0.075 (30 °C) and -0.747 ± 0.11 (37 °C).
Take GGUCAGCAAUAUUACGCCGA: under “37 °C”, the “self-splicing fitness (ln)” value is -2.65 ± 0.48.
UAUCAGCAAUAUUACGAAAU: the “self-splicing fitness (ln)” value runs as follows: (30 °C) -2.9 ± 0.16; (37 °C) -0.792 ± 0.15.
On the same counts, the results for CACAAGCAAUAUUACGAGAA are -2.29 ± 0.31 and -2.41 ± 0.34.
On the same counts, the results for CGCCAGCAAUAUUACGUGGA are -3.6 ± 0.2 and -2 ± 0.15.
On to GCUGAGCAAUAUUACGUAGA, for which the “self-splicing fitness (ln)” value (30 °C) is -2.41 ± 0.2 and the “self-splicing fitness (ln)” value (37 °C) is -0.888 ± 0.21.
For CGAGAGCAAUAUUACGUCUC, in that order: -3.03 ± 0.22 and -3.17 ± 0.35.
Take AAAAAGCAAUAUUACGCGCG: the “self-splicing fitness (ln)” value reads like this: (30 °C) -0.0286 ± 0.091; (37 °C) -0.207 ± 0.11.
Turning to GUUCAGCAAUAUUACGCUGC, the “self-splicing fitness (ln)” value (37 °C) is -1.76 ± 0.4.
For AUUUAGCAAUAUUACGAUUG, the “self-splicing fitness (ln)” value by setting is: (30 °C) -2.72 ± 0.21; (37 °C) -2.05 ± 0.27.
On the same counts, the results for GGGCAGCAAUAUUACGACAA are -1.53 ± 0.22 and -0.573 ± 0.18.
On to GGUCAGCAAUAUUACGAAGU, for which the “self-splicing fitness (ln)” value (30 °C) was -0.729 ± 0.076 and the “self-splicing fitness (ln)” value (37 °C) is -0.336 ± 0.1.
Regarding UAAAAGCAAUAUUACGUCAG, the “self-splicing fitness (ln)” value is -1.56 ± 0.074 (30 °C) and -0.962 ± 0.097 (37 °C).
On the same counts, the results for CAGGAGCAAUAUUACGGCUA are -2.6 ± 0.19 and -1.34 ± 0.16.
On the same counts, the results for GCUCAGCAAUAUUACGCAUU are -0.452 ± 0.078 and -0.0385 ± 0.1.
On the same counts, the results for UGGCAGCAAUAUUACGGUAG are -0.874 ± 0.062 and -0.684 ± 0.084.
With UCGAAGCAAUAUUACGGCGU, the “self-splicing fitness (ln)” value (30 °C) was -0.22 ± 0.087 and the “self-splicing fitness (ln)” value (37 °C) is -0.249 ± 0.12.
Regarding GUCCAGCAAUAUUACGUACU, the “self-splicing fitness (ln)” value runs as follows: (30 °C) -2.47 ± 0.14; (37 °C) -1.53 ± 0.14.
For GUCCAGCAAUAUUACGCGUC, in that order: -1.15 ± 0.088 and 0.346 ± 0.12.
As for UCCAAGCAAUAUUACGCAUC, the “self-splicing fitness (ln)” value reads like this: (30 °C) -3.02 ± 0.21; (37 °C) -2.93 ± 0.24.
With CUCAAGCAAUAUUACGGAGC, the “self-splicing fitness (ln)” value (30 °C) was -3.11 ± 0.11 and the “self-splicing fitness (ln)” value (37 °C) is -2.54 ± 0.14.
On the same counts, the results for UGCUAGCAAUAUUACGAAUG are -0.8 ± 0.1 and 0.288 ± 0.16.
On the same counts, the results for UUAAAGCAAUAUUACGGUGG are -0.511 ± 0.079 and 0.0701 ± 0.1.
With ACCGAGCAAUAUUACGUUUA, the “self-splicing fitness (ln)” value runs as follows: (30 °C) -3.4 ± 0.27; (37 °C) -2.39 ± 0.18.
In the case of AAAGAGCAAUAUUACGAUAG, the “self-splicing fitness (ln)” value runs as follows: (30 °C) -3.88 ± 0.23; (37 °C) -2.9 ± 0.2.
Consider CAAGAGCAAUAUUACGGGGU, for which the “self-splicing fitness (ln)” value (30 °C) is -4.66 ± 0.2 and the “self-splicing fitness (ln)” value (37 °C) is -2.61 ± 0.19.
Consider CACCAGCAAUAUUACGUAGA, for which the “self-splicing fitness (ln)” value by setting is: (30 °C) -1.46 ± 0.052; (37 °C) -0.916 ± 0.064.
For CGGGAGCAAUAUUACGUGGU, in that order: -3.52 ± 0.2 and -2.46 ± 0.19.
On the same counts, the results for CGUAAGCAAUAUUACGUGCA are -0.906 ± 0.086 and 0.102 ± 0.096.
On the same counts, the results for ACCGAGCAAUAUUACGGGGG are -3.8 ± 0.18 and -3.18 ± 0.2.
As to AUGAAGCAAUAUUACGAUGG, the “self-splicing fitness (ln)” value runs as follows: (30 °C) -3.18 ± 0.18; (37 °C) -1.92 ± 0.16.
On the same counts, the results for CUCAAGCAAUAUUACGUUCC are -3.08 ± 0.32 and -2.32 ± 0.26.
